Laboratory results taken from PMC12246617, “Cryo-EM structures reveal the PP2A–B55α and Eya3 interaction that can be disrupted by a peptide inhibitor” (The Journal of Biological Chemistry, 2025).
Substitutions are numbered along the chain they refer to. Numbers in names are those of the source.

B1: ARPP19: a protein inhibitor that binds to both the B and C subunits (protein, UniProt P56211 2-112, looked up)
cAMP-regulated phosphoprotein …: SAEVPEAASAEEQKEMEDKVTSPEKAEEAKLKARYPHLGQKPGGSDFLRKRLQKGQKYFDSGDYNMAKAKMKNKQLPTAAPDKTEVTGDHIPTPQDLPQRKPSLVASKLAG
B2: FAM122A: a protein inhibitor that binds to both the B and C subunits (protein, UniProt Q96E09 1-287, looked up)
PPP2R1A-PPP2R2A-interacting …: MAQEKMELDLELPPGTGGSPAEGGGSGGGGGLRRSNSAPLIHGLSDTSPVFQAEAPSARRNSTTFPSRHGLLLPASPVRMHSSRLHQIKQEEGMDLINRETVHEREVQTAMQISHSWEESFSLSDNDVEKSASPKRIDFIPVSPAPSPTRGIGKQCFSPSLQSFVSSNGLPPSPIPSPTTRFTTRRSQSPINCIRPSVLGPLKRKCEMETEYQPKRFFQGITNMLSSDVAQLSDPGVCVSSDTLDGNSSSAGSSCNSPAKVSTTTDSPVSPAQAASPFIPLDELSSK
B3: Eya3 NTD: Eya3 N-terminal domain protein (NTD, residues 1–250) (protein, UniProt Q99504 1-250, looked up, fragment)
chain: MEEEQDLPEQPVKKAKMQESGEQTISQVSNPDVSDQKPETSSLASNLPMSEEIMTCTDYIPRSSNDYTSQMYSAKPYAHILSVPVSETAYPGQTQYQTLQQTQPYAVYPQATQTYGLPPFGALWPGMKPESGLIQTPSPSQHSVLTCTTGLTTSQPSPAHYSYPIQASSTNASLISTSSTIANIPAAAVASISNQDYPTYTILGQNQYQACYPSSSFGVTGQTNSDAESTTLAATTYQSEKPSVMAPAPA
B4: K75A: Eya3 K75A mutant protein from E. coli (protein, UniProt Q99504 1-573, looked up, variant K75A)
Protein phosphatase EYA3: MEEEQDLPEQPVKKAKMQESGEQTISQVSNPDVSDQKPETSSLASNLPMSEEIMTCTDYIPRSSNDYTSQMYSAAPYAHILSVPVSETAYPGQTQYQTLQQTQPYAVYPQATQTYGLPPFGALWPGMKPESGLIQTPSPSQHSVLTCTTGLTTSQPSPAHYSYPIQASSTNASLISTSSTIANIPAAAVASISNQDYPTYTILGQNQYQACYPSSSFGVTGQTNSDAESTTLAATTYQSEKPSVMAPAPAAQRLSSGDPSTSPSLSQTTPSKDTDDQSRKNMTSKNRGKRKADATSSQDSELERVFLWDLDETIIIFHSLLTGSYAQKYGKDPTVVIGSGLTMEEMIFEVADTHLFFNDLEECDQVHVEDVASDDNGQDLSNYSFSTDGFSGSGGSGSHGSSVGVQGGVDWMRKLAFRYRKVREIYDKHKSNVGGLLSPQRKEALQRLRAEIEVLTDSWLGTALKSLLLIQSRKNCVNVLITTTQLVPALAKVLLYGLGEIFPIENIYSATKIGKESCFERIVSRFGKKVTYVVIGDGRDEEIAAKQHNMPFWRITNHGDLVSLHQALELDFL
B5: Y77A: Eya3 Y77A mutant protein from E. coli (protein, UniProt Q99504 1-573, looked up, variant Y77A)
Protein phosphatase EYA3: B4 Protein phosphatase EYA3 with A75K, Y77A

Tests used:
PP2A–B55 [1] = conditions: 6,8-difluoro-4-methylumbelliferyl phosphate substrate; cited from earlier work
Description: It is not surprising that ARPP19 and FAM122A inhibit the PP2A–B55 phosphatase activity since these two proteins bind on the surface of both B55 and C subunits, blocking access to the active site on C subunit.

PP2A–B55 [2] = assay: Fluorescent phosphatase assay with OMFP substrate; format: biochemical, human; conditions: three independent biological replicates
Protocol: We noted that the buffer condition we used in our assay (50 mM Tris [pH 7.5], 50 mM NaCl, 5 mM MgCl2, and 0.1 mM EDTA) is substantially different from that used by Padi et al. (30 mM Hepes [pH 7.0], 150 mM NaCl, 1 mM MnCl2, 1 mM DTT, 0.01% Triton X-100, and 0.1 mg/ml bovine serum albumin) ([46], [84]).
Figure 5 Eya3 NTD and B55i inhibit the phosphatase activity of PP2A–B55.A, the phosphatase activity of PP2A–B55 in the absence and presence of Eya3 NTD in a fluorescent phosphatase assay using OMFP as a substrate under our previous buffer conditions ([46]). […] RFU, relative fluorescence units; NTD, N-terminal domain; OMFP, 3-O-methylfluorescein phosphate. […]
FLAG-PP2A–B55 was expressed and purified from cells transfected with pCAG-FLAG-B55, using the same method as FLAG-hEya3. […] Proteins were analyzed by SDS-PAGE, and fractions containing the PP2A–B55α holoenzyme were pooled, concentrated, aliquoted, and stored at −80 °C.
PP2A–B55 holoenzyme (25 nM) with or without 1 μM Eya3 NTD in 30 mM Hepes (pH 7.0), 150 mM NaCl, 1 mM MnCl2, 1 mM DTT, 0.01% Triton X-100, 0.1 mg/ml bovine serum albumin was incubated at room temperature for 10 min. […] Fluorescent OMFP, corresponding to phosphatase activity, was read using a BioTek Synergy H1 plate reader (excitation at 485 nm and emission at 515 nm).

B55α (His-B55) = assay: Microscale thermophoresis (MST) binding of Eya3 to labeled His-B55; parameters: species or system human; conditions: fluorescently labeled His-B55, vs Eya3 WT
Description: We expressed and purified Eya3 protein from Escherichia coli and the His-B55α subunit from insect cells (Fig. S1). In the remainder of the article, we will use B55 to represent B55α for simplicity and PP2A–B55 to represent the holoenzyme containing the A, B55, and C subunits. We labeled His-B55 with the RED–Tris–NTA dye and carried out microscale thermophoresis (MST) experiments with increasing concentrations of Eya3.
The modeled Eya3 peptide (residues 65–86) interacts mostly with residues on blades 3 and 4 of the β-propeller on the B55 surface (including residues on the β2D and β3A loop, β3B and β3C loop, and β3D and β4A loop) and with residues on the α1 and α2 helix positioned above blade 5, as well as the α2 and β6A loop (Fig. 1F). In particular, residue H79^Eya3 forms pi–pi or pi–cation stacking with H179^B55 and a hydrogen bond with D197^B55 (Fig. 2A). […] Furthermore, Y77^Eya3 forms a hydrogen bond with the main chain carbonyl of L225^B55, and K75^Eya3 forms another hydrogen bond with Y337^B55 (Fig. 2, B and C). […] We expressed and purified Eya3 K75A, Y77A, and H79A mutant proteins from E. coli and carried out MST experiments with fluorescently labeled His-B55. […] While we were working on the structure of PP2A–B55 + Eya3, Padi et al. ([84]) published the cryo-EM structure of PP2A–B55 in complex with an Eya3 peptide (residues 62–108) on bioRxiv.
FLAG-hB55, FLAG-hEya3, GFP, and GFP-B55i were cloned into the pCAG vector; (GST)-mEya3 was cloned into pGEX-6p1; His-hB56γ1 was cloned into pGEX-4T1; and His-hB55 was cloned in pFASTbac, all using the NEBuilder HiFi DNA Assembly Cloning Kit (New England Biolabs). h and m represent human and mouse proteins, respectively.
GST-mEya3 and mutants were expressed in BL21 cells. Cells were lysed in lysis buffer containing 50 mM Tris (pH 7.5), 250 mM NaCl, 5% glycerol, 1 mM DTT, and protease inhibitor cocktail (PIC; Thermo Scientific). Lysis was done in ice with sonication using 4 × 45 s pulses with 2-min off periods. NaCl was brought up to 0.5 M using 5 M NaCl, and the lysate was centrifuged for 40 min at 18,000g. Supernatant was gravity-flown over glutathione resin twice. Resin was washed with 100 ml of lysis buffer. GST was cleaved with PreScission protease and eluted into lysis buffer. Eluates were pooled and concentrated with Amicon Ultra Centrifugal filters. Concentrated protein was separated on a pre-equilibrated S200 column for size-exclusion chromatography. Peaks were combined, concentrated again, aliquoted, and stored at −80 °C.
His-B55 was expressed in Hi5 cells. […]
His-B55 or His-B56γ1 labeled with […] (NanoTemper) was added to serial dilutions of mEya3 in PBS with 0.05% Tween-20. The samples were then read with a Monolith NT.115^Pico (NanoTemper) according to the manufacturer’s instructions.

[3] = tested on: apparent S/T phosphatase activity of Eya3; conditions: Eya3 mutant; cited from earlier work
Description: The modeled Eya3 peptide (residues 65–86) interacts mostly with residues on blades 3 and 4 of the β-propeller on the B55 surface (including residues on the β2D and β3A loop, β3B and β3C loop, and β3D and β4A loop) and with residues on the α1 and α2 helix positioned above blade 5, as well as the α2 and β6A loop (Fig. 1F). In particular, residue H79^Eya3 forms pi–pi or pi–cation stacking with H179^B55 and a hydrogen bond with D197^B55 (Fig. 2A). […] Furthermore, Y77^Eya3 forms a hydrogen bon ...

Molecule | phosphatase activity of PP2A–B55 in vitro (PP2A–B55 [1]) | binding between Eya3 and B55 (mutants) (B55α (His-B55)) | further results
B1 | inhibit the phosphatase activity of PP2A–B55 in vitro |  | 
B2 | inhibit the phosphatase activity of PP2A–B55 in vitro |  | 
B3 |  |  | phosphatase activity of PP2A–B55 (Padi et al. buffer) (PP2A–B55 [2]; 25 nM PP2A–B55, 1 μM Eya3 NTD, 30 mM Hepes (pH 7.0), 150 mM NaCl, 1 mM MnCl2, 1 mM DTT, 0.01% Triton X-100, 0.1 mg/ml BSA, room temperature 10 min, then 37 °C 30 min, ex 485/em 515 nm): inhibits the phosphatase activity of PP2A–B55; phosphatase activity of PP2A–B55 (previous buffer) (PP2A–B55 [2]; buffer 50 mM Tris [pH 7.5], 50 mM NaCl, 5 mM MgCl2, 0.1 mM EDTA, with vs without Eya3 NTD): increases the phosphatase activity of PP2A–B55
B4 |  | significantly reduce the binding between Eya3 and B55 | 
B5 |  | significantly reduce the binding between Eya3 and B55 | apparent S/T phosphatase activity of Eya3 [3]: abolish the apparent S/T phosphatase activity of Eya3
